Laboratory results taken from US20220017612A1 (TILOS THERAPEUTICS, published 2022).
Each block holds one binder with its values, some of them ahead of it.

Legend:
[1] = biological target: T1, human GARP and human LAP-TGFβ1 co-expressed on P3U1 cells (human, UniProt Q14392 20-662); assay: flow cytometry, P3U1 cells
T1 construct: whole, on cells; also called P3U1 cells over-expressing human GARP and LAP-TGFβ1
Protocol: (§1) This Example describes the binding of anti-LAP antibodies to LAP-TGFβ isoforms and LAP-TGFβ variants. In addition to antibodies 28G11_hIgG1, 22F9_hIgG1, and 20E6_hIgG1, anti-LAP antibodies 17G8_hIgG1, 24E3_hIgG1, and 2C9_(hyb) were also tested in this experiment. Briefly, 4×10⁵ each of (a) HT1080 cells, (b) HT1080 cells overexpressing human LAP-TGFβ1, (c) HT1080 cells overexpressing human LAP-TGFβ2, (d) HT1080 cells overexpressing human LAP-TGFβ3, (e) HT1080 cells overexpressing murine LAP-TGFβ1, (f) P3U1 cells, (g) P3U1 cells overexpressing LAP-TGFβ1 and GARP, and (h) P3U1 cells overexpressing LAP-TGFβ1 and LRRC33 were cultured in 96-well plates. The plates were centrifuged for 5 min at 1,500 rpm, liquid was removed, and cells were resuspended with 200 μL FACS buffer. The plates were centrifuged again, diluted primary antibody was added to each well, and the plates were incubated on ice for 20 minutes, followed by centrifugation. The cells were resuspended in 200 μL FACS buffer, centrifuged again, and resuspended in 50 μL diluted secondary antibody (Alexa647-anti-Human IgG or APC-anti-Mouse IgG). The plates were incubated on ice for 20 minutes in the dark, washed twice with 200 μL FACS buffer, and cells from each well (in 200 μL FACS buffer) were read on the Attune NXT instrument.

[2] = biological target: T2, fusion protein of a human IgG1 Fc domain and human LAP-TGFβ1 (human, UniProt P01137 30-390); assay: BLI, antibody on tip, 1:1 model
T2 construct: printed both as Fc-huB1 and LAP-TGFβ-Fc; also called Fc-huB1; Fc-human LAP
T2 sequence (P01137 30-390 limits assumed): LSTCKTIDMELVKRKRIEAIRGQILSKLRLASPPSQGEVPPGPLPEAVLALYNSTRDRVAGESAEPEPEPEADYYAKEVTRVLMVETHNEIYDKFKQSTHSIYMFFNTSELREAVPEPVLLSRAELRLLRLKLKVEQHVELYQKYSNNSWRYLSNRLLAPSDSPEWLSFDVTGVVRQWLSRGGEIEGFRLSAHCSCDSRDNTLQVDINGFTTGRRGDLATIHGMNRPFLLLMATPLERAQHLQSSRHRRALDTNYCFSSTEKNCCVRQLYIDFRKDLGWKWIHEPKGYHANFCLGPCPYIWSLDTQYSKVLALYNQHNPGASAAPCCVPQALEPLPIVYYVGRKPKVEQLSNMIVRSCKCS
Protocol: Binding to human TGFβ1 of a subset of candidates was also tested by bio-layer interferometry (Octet). A streptavidin coated tip was equilibrated for 60 seconds in binding buffer (10 mM sodium phosphate, 150 mM sodium chloride, 1% bovine serum albumin, 0.05% sodium azide). The tip was then dipped in 10 μg/mL biotinylated antibody in binding buffer. After 15 seconds, the tip was washed in binding buffer for 60 seconds, and then dipped in 0-24 nM Fc-human LAP. Analyte association was measured for 5 minutes. The tip was transferred to binding buffer alone, and analyte dissociation was measured for 5 minutes. The association and dissociation data were fit to a 1:1 binding model.

[3] = biological target: T3, human-chicken LAP-TGFβ1 chimera #2.2 on HT1080 cells (human/chicken chimera, UniProt P01137 30-390); assay: flow cytometry, HT1080 cells; grey bar = no anti-LAP antibody
T3 construct: also called HT1080-ch2.2
T3 sequence (P01137 other isoform, or with tags, fused parts or gaps mutant): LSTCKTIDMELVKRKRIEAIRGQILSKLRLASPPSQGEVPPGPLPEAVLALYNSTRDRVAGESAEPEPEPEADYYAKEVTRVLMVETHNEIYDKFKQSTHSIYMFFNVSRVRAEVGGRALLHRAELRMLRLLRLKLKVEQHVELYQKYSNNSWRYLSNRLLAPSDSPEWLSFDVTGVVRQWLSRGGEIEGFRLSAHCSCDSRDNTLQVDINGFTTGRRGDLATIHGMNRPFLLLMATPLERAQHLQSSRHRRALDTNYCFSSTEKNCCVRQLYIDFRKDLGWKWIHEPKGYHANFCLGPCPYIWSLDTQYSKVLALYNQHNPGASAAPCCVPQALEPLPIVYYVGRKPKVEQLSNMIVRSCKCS
Protocol: as §1
(§2) Cells were processed for flow cytometry in the same manner described above for the isoform-specific binding experiments.

[4] = biological target: T4, human-chicken LAP-TGFβ1 chimera #2.3 on HT1080 cells (human/chicken chimera, UniProt P01137 30-390); assay: as above
T4 construct: also called HT1080-ch2.3
T4 sequence (P01137 other isoform, or with tags, fused parts or gaps mutant): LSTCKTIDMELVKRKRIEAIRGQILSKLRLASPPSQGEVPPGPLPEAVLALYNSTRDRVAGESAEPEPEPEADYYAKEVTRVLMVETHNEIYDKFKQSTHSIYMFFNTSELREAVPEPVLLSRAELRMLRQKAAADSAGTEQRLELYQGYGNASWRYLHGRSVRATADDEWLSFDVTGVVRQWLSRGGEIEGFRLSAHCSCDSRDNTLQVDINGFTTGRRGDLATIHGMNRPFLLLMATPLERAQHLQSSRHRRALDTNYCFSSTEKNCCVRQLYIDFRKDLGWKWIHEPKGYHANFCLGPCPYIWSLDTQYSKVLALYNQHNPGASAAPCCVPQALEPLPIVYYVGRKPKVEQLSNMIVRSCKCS
Protocol: as §1, §2

[5] = biological target: T5, human LAP-TGFβ1 with K27C and Y75C mutations on HT1080 cells (human, UniProt P01137 30-390); assay: as above
T5 construct: also called closed conformation
T5 sequence (P01137 other isoform, or with tags, fused parts or gaps K27C Y75C K27C Y75C): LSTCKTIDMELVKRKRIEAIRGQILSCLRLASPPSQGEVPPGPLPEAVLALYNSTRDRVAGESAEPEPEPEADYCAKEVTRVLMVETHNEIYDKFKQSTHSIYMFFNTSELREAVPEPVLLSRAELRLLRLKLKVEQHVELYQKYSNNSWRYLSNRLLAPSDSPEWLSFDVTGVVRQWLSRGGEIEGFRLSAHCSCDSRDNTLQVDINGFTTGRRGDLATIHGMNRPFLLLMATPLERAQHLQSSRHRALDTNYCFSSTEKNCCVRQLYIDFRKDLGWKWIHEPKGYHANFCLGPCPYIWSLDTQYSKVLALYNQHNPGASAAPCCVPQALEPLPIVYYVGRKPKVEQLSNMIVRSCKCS
Protocol: as §1, §2

[6] = biological target: T6, human LAP-TGFβ1 with a Y74T mutation on HT1080 cells (human, UniProt P01137 30-390); assay: as above
T6 construct: also called HT1080-Y74T; open conformation
T6 sequence (P01137 other isoform, or with tags, fused parts or gaps Y74T Y74T): as the sequence (P01137 other isoform, or with tags, fused parts or gaps K27C Y75C K27C Y75C) above, with C27K, Y74T, C75Y counted along it
Protocol: as §1, §2

[7] = biological target: T7, LAP-only variant of human TGFβ1 (empty LAP) on HT1080 cells (human, UniProt P01137 30-277); assay: as above
T7 construct: LAP without the mature cytokine; also called HT1080-emptyLAP; LAP-only construct
T7 sequence (P01137 30-277, change not shown): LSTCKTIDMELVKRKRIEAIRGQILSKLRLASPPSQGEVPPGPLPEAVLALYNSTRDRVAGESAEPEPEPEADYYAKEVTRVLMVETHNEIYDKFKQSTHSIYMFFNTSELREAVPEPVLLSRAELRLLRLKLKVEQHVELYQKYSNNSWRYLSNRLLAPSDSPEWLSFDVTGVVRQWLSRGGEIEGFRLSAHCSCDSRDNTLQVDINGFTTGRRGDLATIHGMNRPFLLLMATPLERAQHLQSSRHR
Protocol: as §1, §2

[8] = biological target: T8, soluble complex of the ECR3E fragment of human LTBP1 and human LAP-TGFβ1 (human, UniProt Q14766 1286-1466, limits assumed); assay: bio-layer interferometry, biotinylated antibody on streptavidin tip
T8 construct: domain: third cysteine-rich domain of human LTBP1, flanked by EGFR-like domains; also called ECR3E-LAP-TGFβ1; ECR3E-LAP
T8 sequence (chain, as listed by the source limits assumed, chain 1 of 2): as the sequence (P01137 30-390 limits assumed) above
T8 sequence (Q14766 1286-1466 limits assumed, chain 2 of 2): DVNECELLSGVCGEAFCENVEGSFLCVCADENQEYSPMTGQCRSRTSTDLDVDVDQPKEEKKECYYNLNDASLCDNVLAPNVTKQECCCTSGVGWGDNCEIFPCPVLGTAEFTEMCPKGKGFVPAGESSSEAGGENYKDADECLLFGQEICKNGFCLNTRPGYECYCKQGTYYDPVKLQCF
Protocol: A streptavidin-functionalized tip was equilibrated in binding buffer (10 mM sodium phosphate, 150 mM sodium chloride, 1% (w/v) bovine serum albumin, 0.05% (w/v) sodium azide, pH 7.4) and dipped in a 5 μg/mL solution of biotinylated antibody (i.e., 20E6_H0.2aL1_hIgG1, murine 16F4, or MHG8, a GARP-specific murine IgG2a described in Lienart et al. Science 2018; 362:952-956) in binding buffer for 30 seconds to load the tip with antibody. The antibody-loaded tip was then washed in binding buffer and placed in a solution containing 0-24 nM of a fusion protein containing a human IgG1 Fc domain fused to either human LAP-TGFβ1, the soluble GARP-LAP-TGFβ1 complex, or the soluble ECR3E-LAP-TGFβ1 complex. The antigen was allowed to bind to antibody for 5 minutes (association phase), and then the tip was moved to binding buffer (dissociation phase). The binding and dissociation data for 16F4 and MHG8 were well-fit by a 1:1 binding model. The association and dissociation phases for 20E6_H0.2aL1_hIgG1 antibody were fit to a 2:1 heterogenous ligand binding model to determine the binding rate constants.
As shown in FIG. 24 and Table 21, the 20E6_H0.2aL1_hIgG1 antibody bound to free LAP-TGFβ1 and the soluble GARP-LAP-TGFβ1 complex with nanomolar affinity, but not to the ECR3E-LAP-TGFβ1 complex. […]

T1 sequence (chain, as listed by the source, chain 1 of 2): as the sequence (P01137 30-390 limits assumed) above
T1 sequence (Q14392 20-662, chain 2 of 2): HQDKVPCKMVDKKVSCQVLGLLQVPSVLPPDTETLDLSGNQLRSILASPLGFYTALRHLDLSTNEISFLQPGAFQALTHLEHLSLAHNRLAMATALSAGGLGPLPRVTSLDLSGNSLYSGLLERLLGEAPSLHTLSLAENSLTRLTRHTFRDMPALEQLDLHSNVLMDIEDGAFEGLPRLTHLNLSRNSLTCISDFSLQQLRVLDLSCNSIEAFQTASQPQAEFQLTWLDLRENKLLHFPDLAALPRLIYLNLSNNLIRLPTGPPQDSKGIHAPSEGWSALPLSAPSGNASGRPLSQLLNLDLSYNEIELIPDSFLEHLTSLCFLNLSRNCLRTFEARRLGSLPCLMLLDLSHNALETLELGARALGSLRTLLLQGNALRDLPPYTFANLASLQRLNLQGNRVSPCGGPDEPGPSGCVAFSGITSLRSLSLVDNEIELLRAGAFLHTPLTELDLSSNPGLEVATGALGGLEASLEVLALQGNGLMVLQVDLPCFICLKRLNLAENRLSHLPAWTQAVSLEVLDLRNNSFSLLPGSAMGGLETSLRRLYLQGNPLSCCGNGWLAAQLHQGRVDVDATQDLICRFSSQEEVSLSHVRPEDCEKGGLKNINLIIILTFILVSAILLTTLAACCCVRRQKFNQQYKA

binding result [1]: binds
Kd [2]: 3.74 nM
koff [2]: 0.00168 s⁻¹
kon [2]: 450000 M⁻¹ s⁻¹
binding result [3]: no binding
binding result [4]: binds
binding result [5]: binds
binding result [6]: no binding
binding result [7]: no binding
B1: 22F9_hIgG1 (antibody, V domains shown)
VH: QVQLQQPGAELVKPGASVKLSCKASGYTFTSYWMHWVKQRPGQGLEWIGMIHPNSGSTNYNEKFKSKATLTVDKSSSTAYMQLSSLTSEDSAVYYCAYYDYDGFFDVWGTGTTVTVSS
VL: DIVLTQSPASLDVSLGQRATISCRASKSVSTSGYSYMHWYQQKSGQPPKLLIYLASNLESGVPARFSGSGSGTHFTLNIHPVEEEDAATYYCQHSRELPYTFGGGTKLEIK

binding result [8]: no binding (tested: 24 nM)
B2: 20E6_H0.2aL1_hIgG1 (antibody)
heavy: not shown
light: DIQMTQSPSSLSASVGDRVTITCRASQDITNYLNWYQQKPGKAVKLLIYYTSRLHSGVPSRFSGSGSGTDYTLTISSLQPEDFATYFCQQGDTLPWTFGQGTKLEIKRTVAAPSVFIFPPSDEQLKSGTASVVCLLNNFYPREAKVQWKVDNALQSGNSQESVTEQDSKDSTYSLSSTLTLSKADYEKHKVYACEVTHQGLSSPVTKSFNRGEC
notes: also called 20E6_H0.2aL1_IgG1; humanized 20E6
